Measurements reported in patent US20120071394A1.

Molecular target: human C5a receptor (C5aR) (human) (UniProt P21730)
Experiment: cell-based or functional assay

human C5a receptor (C5aR) (human), sequence (P21730 whole entry): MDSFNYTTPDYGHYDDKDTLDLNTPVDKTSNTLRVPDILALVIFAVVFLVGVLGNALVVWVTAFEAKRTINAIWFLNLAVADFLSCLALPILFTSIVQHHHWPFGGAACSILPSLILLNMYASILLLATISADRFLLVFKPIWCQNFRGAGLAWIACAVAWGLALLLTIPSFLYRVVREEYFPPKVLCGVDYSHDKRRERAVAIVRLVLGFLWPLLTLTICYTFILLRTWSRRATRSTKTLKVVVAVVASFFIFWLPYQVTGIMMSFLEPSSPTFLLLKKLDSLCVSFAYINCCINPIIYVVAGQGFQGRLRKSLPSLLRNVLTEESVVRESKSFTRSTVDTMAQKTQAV

| Substance | C5aR blocking activity (in neutrophils), % of wt CHIPS1-121 (% of wt CHIPS1-121) | Chemotaxis IC50 [nM] | IC50 of inhibition of calcium release, ratio to CHIPS1-121 (fold of the IC50 of CHIPS1-121) | IC50 of inhibition of neutrophil migration towards C5a, ratio to CHIPS1-121 (fold of the IC50 of CHIPS1-121) | concentration needed for 50% inhibition of calcium release (IC50), neutrophils stimulated with C5a [nM] |
| --- | --- | --- | --- | --- | --- |
| ADC-1004 (from UniProt A6QIG7 59-138) | > 50 | 49 | 2 | 4 | 0.4 |
| Wild-type CHIPS1-121 (Chemotaxis Inhibitory Protein of Staphylococcus aureus) (from UniProt A6QIG7 29-149) | – | 8.2 | – | – | – |
